Measured values: patent US20230235004A1 (published 2023)
Where two headings read alike, the source gives them in different places.

T1: human MAdCAM expressed on cells (human, UniProt Q13477 19-382)
T1 construct: whole, on cells
T1 sequence (looked up): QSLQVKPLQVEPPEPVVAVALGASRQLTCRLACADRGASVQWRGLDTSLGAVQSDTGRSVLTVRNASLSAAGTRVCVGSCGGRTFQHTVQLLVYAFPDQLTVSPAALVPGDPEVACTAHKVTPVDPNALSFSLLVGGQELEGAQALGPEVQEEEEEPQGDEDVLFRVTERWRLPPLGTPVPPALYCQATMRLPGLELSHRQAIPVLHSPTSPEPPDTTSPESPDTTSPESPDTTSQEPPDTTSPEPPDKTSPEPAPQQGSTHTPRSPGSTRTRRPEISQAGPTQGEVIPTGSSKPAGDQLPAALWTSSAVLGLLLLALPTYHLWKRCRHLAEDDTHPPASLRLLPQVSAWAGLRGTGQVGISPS

T2: mouse MAdCAM expressed on cells (mouse, UniProt Q61826 22-405)
T2 construct: whole, on cells
T2 sequence (looked up): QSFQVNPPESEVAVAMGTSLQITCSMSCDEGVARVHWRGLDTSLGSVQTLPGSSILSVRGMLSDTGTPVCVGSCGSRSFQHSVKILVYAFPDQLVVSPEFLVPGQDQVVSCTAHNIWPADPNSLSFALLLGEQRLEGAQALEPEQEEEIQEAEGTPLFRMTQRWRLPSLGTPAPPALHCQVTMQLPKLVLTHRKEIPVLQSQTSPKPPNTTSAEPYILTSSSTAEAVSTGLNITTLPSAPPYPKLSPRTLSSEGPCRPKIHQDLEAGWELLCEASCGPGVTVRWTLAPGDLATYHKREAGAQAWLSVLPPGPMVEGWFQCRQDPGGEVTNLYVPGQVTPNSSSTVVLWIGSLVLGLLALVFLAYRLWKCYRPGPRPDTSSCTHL

T3: human MAdCAM protein (human, UniProt Q13477 19-317, limits assumed)
T3 construct: also called soluble monomeric human MAdCAM; recombinant human MAdCAM
T3 sequence (looked up): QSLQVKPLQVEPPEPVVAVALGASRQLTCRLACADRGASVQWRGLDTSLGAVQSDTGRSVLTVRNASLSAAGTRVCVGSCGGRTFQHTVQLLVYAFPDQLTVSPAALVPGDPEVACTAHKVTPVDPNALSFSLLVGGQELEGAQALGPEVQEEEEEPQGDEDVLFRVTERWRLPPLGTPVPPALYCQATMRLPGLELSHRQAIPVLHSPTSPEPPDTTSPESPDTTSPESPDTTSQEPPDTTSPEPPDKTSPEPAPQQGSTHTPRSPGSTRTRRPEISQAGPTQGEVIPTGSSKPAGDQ


What was measured:
[1] = target: T1, human MAdCAM expressed on cells; assay: cell binding
[2] = target: T2, mouse MAdCAM expressed on cells; assay: cell binding
[3] = target: T1, human MAdCAM expressed on cells; assay: cell binding; remark: listed apart in the source
[4] = target: T2, mouse MAdCAM expressed on cells; assay: cell binding; remark: listed apart in the source
human MAdCAM protein = target: T3, human MAdCAM protein; assay: Octet

| Binder | binding result [1] | binding result [2] | binding result [3] | binding result [4] | binding result (human MAdCAM protein) |
| --- | --- | --- | --- | --- | --- |
| MAdCAM antibody Table 1 clone 55 (scFv) scFv: QVQLVQSGAEVKKPGASVKVSCKASGYTFTSYYMHWVRQAPGQGLEWMGIIDPSGGSTSYAQKFQGRVTMTRDTSTSTVYMELSSLRSEDTAVYYCAREEWSSGGVGYFDYWGQGTLVTVSSGGGGSGGGGSGGGGSGGGGSDIQMTQSPSSLSASVGDRVTITCRASQGISSYLAWYQQKPGKAPKLLIYATSSLQTGVPSRFSGSGSGTDFTLTISSLQPEDFATYYCQQTYSIPITFGQGTRLEIK | binds | no binding |  |  |  |
| MAdCAM Antibody Table 2 clone 63 (antibody, V domains shown, IgG format) VH: EVQLLESGGGLVQPGGSLRLSCAASGFTFNNYGMNWVRQAPGKGLEWVSRINSDGSSTSYADSVKGRFTISRDNSKNTLYLQMNSLRAEDTAVYYCARGAYYYYYMDVWGQGTLVTVSS VL: EIVMTQSPATLSVSPGERATLSCRASQSVSGSYLAWYQQKPGQAPRLLIYATSSRASGIPARFSGSGSGTEFTLTISSLQSEDFAVYYCQQYYSGLTFGQGTKVEIK |  |  | binds | no binding | binds |
| MAdCAM antibody Table 1 clone 13 (scFv) scFv: EVQLLESGGGLVQPGGSLRLSCAASGFTFDDYAMHWVRQAPGKGLEWVSYIDASGTTIYYADSVKGRFTISRDNSKNTLYLQMNSLRAEDTAVYYCAKDQAAAGYWYFDLWGRGTLVTVSSGGGGSGGGGSGGGGSGGGGSDIQMTQSPSSLSASVGDRVTITCQASQDISNYLNWYQQKPGKAPKLLIYKASTLESGVPSRFSGSGSGTDFTLTISSLQPEDFATYYCQQSYSTPITFGQGTRLEIK | binds | no binding |  |  |  |
| MAdCAM antibody Table 1 clone 12 (scFv) scFv: QVQLVQSGAEVKKPGASVKVSCKASGYTFTGYYMHWVRQAPGQGLEWMGWIGPNSGDTNYAQKFQGRVTMTRDTSTSTVYMELSSLRSEDTAVYYCARDLDHNWYFDLWGRGTLVTVSSGGGGSGGGGSGGGGSGGGGSDIVMTQSPLSLPVTPGEPASISCRSSQSLLHSNGYNYLDWYLQKPGQSPQLLIYSSSNRAPGVPDRFSGSGSGTDFTLKISRVEAEDVGVYYCMQALHIPLTFGGGTKVEIK | binds | no binding |  |  |  |
| MAdCAM Antibody Table 2 clone 30 (antibody, V domains shown, IgG format) VH: EVQLLESGGGLVQPGGSLRLSCAASGFTFSSYAMHWVRQAPGKGLEWVSGISGSGGSAYYADSVKGRFTISRDNSKNTLYLQMNSLRAEDTAVYYCATSQAPVDYYYYGMDVWGQGTTVTVSS VL: DIQMTQSPSSLSASVGDRVTITCRASQSISSWLAWYQQKPGKAPKLLIYAASNLQRGVPSRFSGSGSGTDFTLTISSLQPEDFATYYCQQSYSIPITFGQGTKVEIK |  |  | binds | binds | binds |
| MAdCAM Antibody Table 2 clone 60 (antibody, V domains shown, IgG format) VH: EVQLLESGGGLVQPGGSLRLSCAASGFTFSDHGMHWVRQAPGKGLEWVSVIYGGESTYYADSVKGRFTISRDNSKNTLYLQMNSLRAEDTAVYYCARDPAVAGGGIFDYWGQGTLVTVSS VL: DIQMTQSPSSLSASVGDRVTITCRASQGISNYLAWYQQKPGKAPKLLIYDASNLETGVPSRFSGSGSGTDFTLTISSLQPEDFATYYCQQSYSTCYTFGQGTKLEIK |  |  | binds | binds | binds |
| MAdCAM Antibody Table 2 clone 55 (antibody, V domains shown, IgG format) VH: EVQLLESGGGLVQPGGSLRLSCAASGFTFDDFAMHWVRQAPGKGLEWVSGISGNGDSRYYADSVKGRFTISRDNSKNTLYLQMNSLRAEDTAVYYCARDASYGGNYGMDVWGQGTTVTVSS VL: DIQMTQSPSSLSASVGDRVTITCQASQDIRNYLNWYQQKPGKAPKLLIYKASTLESGVPSRFSGSGSGTDFTLTISSLQPEDFATYYCQQANSFPLTFGPGTKVDIK |  |  | binds | no binding | binds |
| MAdCAM antibody Table 1 clone 58 (scFv) scFv: QVQLVQSGAEVKKPGASVKVSCKASGYTFTGYYMHWVRQAPGQGLEWMGIINPSGGNTKYAQKFQGRVTMTRDTSTSTVYMELSSLRSEDTAVYYCTTADYYYYMDVWGKGTTVTVSSGGGGSGGGGSGGGGSGGGGSDIQMTQSPSSLSASVGDRVTITCRASQGISNYLAWYQQKPGKAPKLLIYAASSLQSGVPSRFSGSGSGTDFTLTISSLQPEDFATYYCQQYYSNADFGQGTKVEIK | binds | no binding |  |  |  |
| MAdCAM antibody Table 1 clone 15 (scFv) scFv: QVQLVQSGAEVKKPGSSVKVSCKASGYTFTNYYMHWVRQAPGQGLEWMGGIIPIVDRVKYAQKFQGRVTITADESTSTAYMELSSLRSEDTAVYYCAKGRYTVNYYYGMDVWGQGTTVTVSSGGGGSGGGGSGGGGSGGGGSDIQMTQSPSSLSASVGDRVTITCQANQDISNYLNWYQQKPGKAPKLLIYRASKLEAGVPSRFSGSGSGTDFTLTISSLQPEDFATYYCQQSSEIPYSFGQGTKLEIK | binds | no binding |  |  |  |
| MAdCAM Antibody Table 2 clone 58 (antibody, V domains shown, IgG format) VH: EVQLLESGGGLVQPGGSLRLSCAASGFSVSSNYMSWVRQAPGKGLEWVAGISYDGSSKPYADSVKGRFTISRDNSKNTLYLQMNSLRAEDTAVYYCARSRGIAARPLQHWGQGTLVTVSS VL: not shown |  |  | binds | no binding | binds |

Next, values leading:

| binding result [1] | binding result [2] | binding result [3] | binding result [4] | binding result (human MAdCAM protein) | Binder |
| --- | --- | --- | --- | --- | --- |
| binds | no binding |  |  |  | MAdCAM antibody Table 1 clone 54 (scFv) scFv: EVQLLESGGGLVQPGGSLRLSCAASGFTFGDYAMSWVRQAPGKGLEWVAVVSYDGTNKYYADSVKGRFTISRDNSKNTLYLQMNSLRAEDTAVYYCAKDICSSTSCYFDLWGRGTLVTVSSGGGGSGGGGSGGGGSGGGGSDIQMTQSPSSLSASVGDRVTITCRASQNINNYVNWYQQKPGKAPKLLIYDASNLETGVPSRFSGSGSGTDFTLTISSLQPEDFATYYCQQANSFPPTFGQGTRLEIK |
| binds | no binding |  |  |  | MAdCAM antibody Table 1 clone 14 (scFv) scFv: QVQLVQSGAEVKKPGSSVKVSCKASGYTFTDYHIHWVRQAPGQGLEWMGGIVPRSGSTTYAQKFQGRVTITADESTSTAYMELSSLRSEDTAVYYCAKDESSGWYYFDYWGQGTLVTVSSGGGGSGGGGSGGGGSGGGGSDIVMTQSPLSLPVTPGEPASISCRSSQSLLHSNGYNYLDWYLQKPGQSPQLLIYSAYNRASGVPDRFSGSGSGTDFTLKISRVEAEDVGVYYCMQALQTPLTFGQGTKVEIK |
| binds | binds |  |  |  | MAdCAM antibody Table 1 clone 3 (scFv) scFv: QVQLVQSGAEVKKPGASVKVSCKASGYPFIGQYLHWVRQAPGQGLEWMGIINPSGGSTSYAQKFQGRVTMTRDTSTSTVYMELSSLRSEDTAVYYCAREGRLSYGMDAWGQGTLVTVSSGGGGSGGGGSGGGGSGGGGSDIQMTQSPSSLSASVGDRVTITCRASQSISSYLAWYQQKPGKAPKLLIYGASTLESGVPSRFSGSGSGTDFTLTISSLQPEDFATYYCQQTWGPPFTFGQGTKLEIK |
|  |  | binds | binds | binds | MAdCAM Antibody Table 2 clone 36 (antibody, V domains shown, IgG format) VH: EVQLLESGGGLVQPGGSLRLSCAASGFTFDDYALHWVRQAPGKGLEWVSAISGDGRSTTYADSVKGRFTISRDNSKNTLYLQMNSLRAEDTAVYYCARDGTVNGATGWFDPWGQGTLVTVSS VL: not shown |
| binds | no binding |  |  |  | MAdCAM antibody Table 1 clone 11 (scFv) scFv: QVQLVQSGAEVKKPGASVKVSCKASGYTFTTYYMHWVRQAPGQGLEWMGGFDPEDGETIYAQKFQGRVTMTRDTSTSTVYMELSSLRSEDTAVYYCARHAVAGAVGAGYYYYGMDVWGQGTMVTVSSGGGGSGGGGSGGGGSGGGGSDIQMTQSPSSLSASVGDRVTITCRASESISNWLAWYQQKPGKAPKLLIYAASTLQSGVPSRFSGSGSGTDFTLTISSLQPEDFATYYCQQSYSVPFTFGPGTKVDIK |
| binds | no binding |  |  |  | MAdCAM antibody Table 1 clone 57 (scFv) scFv: QVQLVQSGAEVKKPGASVKVSCKASGYTFTSYYMHWVRQAPGQGLEWMGIINPSGGSTSYAQKFQGRVTMTRDTSTSTVYMELSSLRSEDTAVYYCARDSVAGTGGRYYGMDVWGQGTLVTVSSGGGGSGGGGSGGGGSGGGGSDIQMTQSPSSLSASVGDRVTITCRASQGISNYFAWYQQKPGKAPKLLIYAASSLQGGVPSRFSGSGSGTDFTLTISSLQPEDFATYYCQQSYSLPYTFGQGTKLEIK |
